B1: Hairpin Ribozyme (parent)
chain: GUCCUCUUUCACGUGCGCGUGAAAGAGAGAAGUGAACCAGAGAAACACACGUUGUGGUAUAUUACCUGGUA

Variants of: B1
Test: self-cleavage, relative activity (ratio to wild type); higher = more cleavage; co-transcriptional
In the case of U9G G51C, the self-cleavage is reported as 0.614. C10G U60G showed a self-cleavage of 0.442. A11G G17C showed a self-cleavage of 0.571. Variant A11G G17U has a self-cleavage of 0.823. With C10A A11U the self-cleavage was 0.41. Work on U9G A43C yielded a self-cleavage of 0.0922. With A11G G15A the self-cleavage was 0.896. Work on A11G G15U yielded a self-cleavage of 0.857. Work on U9G U62C yielded a self-cleavage of 0.323. In the case of C10A A47C, the self-cleavage is reported as 0.334. In the case of C10U C37G, the self-cleavage is reported as 0.299. In the case of C10U C37A, the self-cleavage is reported as 0.364. In the case of A11C C12A, the self-cleavage is reported as 0.636. Variant C10U U70A has a self-cleavage of 0.704. Work on C10U U70C yielded a self-cleavage of 0.637. Variant C10U A30G has a self-cleavage of 0.135. A11C A23U gave a self-cleavage of 0.6. A11C A23C gave a self-cleavage of 0.622. For A11C A23G, the self-cleavage was 0.642. With C10G A47G the self-cleavage was 0.177. In the case of C10G A47U, the self-cleavage is reported as 0.175. In the case of U9G A41C, the self-cleavage is reported as 0.693. A11G A31C gave a self-cleavage of 0.0862. Variant A11G A31G has a self-cleavage of 0.728. A11G A31U showed a self-cleavage of 0.0838. In the case of A11C C38A, the self-cleavage is reported as 0.171. With A11C C65A the self-cleavage was 0.896. Work on A11C C65U yielded a self-cleavage of 0.431. With C10A U67C the self-cleavage was 0.188. Variant C10A U67G has a self-cleavage of 0.171. In the case of C10A G57C, the self-cleavage is reported as 0.174. Variant C10A G57U has a self-cleavage of 0.221. A11C U55G gave a self-cleavage of 0.249. A11C C66A gave a self-cleavage of 0.317. For A11C C66U, the self-cleavage was 0.408. Work on C10G A22G yielded a self-cleavage of 0.649. In the case of C10G U33A, the self-cleavage is reported as 0.138. Work on A11G C50U yielded a self-cleavage of 0.321. With A11C U20C the self-cleavage was 1.02. For C10U U62G, the self-cleavage was 0.0799. Work on C10A G54U yielded a self-cleavage of 0.426. Work on C10A G54A yielded a self-cleavage of 0.338. For C10A G19C, the self-cleavage was 0.509. In the case of C10A G19A, the self-cleavage is reported as 0.761. A11G G29A gave a self-cleavage of 0.101. In the case of C10U A71C, the self-cleavage is reported as 1.23. Variant C10U A71U has a self-cleavage of 0.706. A11G G34C showed a self-cleavage of 1.3. Variant C10U A28C has a self-cleavage of 0.305. C10A G69U gave a self-cleavage of 0.14. For C10U G19U, the self-cleavage was 0.672. Work on A11C A44U yielded a self-cleavage of 0.155. In the case of C10G G54U, the self-cleavage is reported as 0.471. Variant C10A A43C has a self-cleavage of 0.0904. C10A A43G gave a self-cleavage of 0.132. Work on C10U C66A yielded a self-cleavage of 0.183. For C10G C65U, the self-cleavage was 0.307. C10U A44G gave a self-cleavage of 0.117. Work on C10U A44U yielded a self-cleavage of 0.187. Work on C10U A22G yielded a self-cleavage of 0.635. C10U A22U gave a self-cleavage of 0.373. Work on C10G A45G yielded a self-cleavage of 0.118. Work on C10G A45U yielded a self-cleavage of 0.136. Work on C10G A45C yielded a self-cleavage of 0.114. For U9G A59G, the self-cleavage was 0.241. C10G A61G showed a self-cleavage of 0.233. In the case of U9G U20A, the self-cleavage is reported as 0.531. U9G U20C gave a self-cleavage of 0.682. In the case of C10A U14C, the self-cleavage is reported as 0.888. With A11C U14G the self-cleavage was 0.661. With U9G U70A the self-cleavage was 0.812. U9G U70C gave a self-cleavage of 0.72. With C10U G54C the self-cleavage was 0.444. C10G A11G showed a self-cleavage of 0.655. Work on C10A C50U yielded a self-cleavage of 0.349. With U9G G27U the self-cleavage was 0.171. In the case of U9G G27A, the self-cleavage is reported as 0.332. Work on A11C G42A yielded a self-cleavage of 0.278. With C10A C65G the self-cleavage was 0.388. With C10A C65A the self-cleavage was 0.556. With C10G the self-cleavage was 0.737. C10U showed a self-cleavage of 0.775. For C10A, the self-cleavage was 0.722. For C10A A31U, the self-cleavage was 0.112. For C10A A31G, the self-cleavage was 0.533. C10G G68C showed a self-cleavage of 0.199. For C10G A71U, the self-cleavage was 0.589. With C10G A71G the self-cleavage was 0.705. Work on C10U C16U yielded a self-cleavage of 0.871. Variant A11G G32C has a self-cleavage of 0.0578. Work on C10U A23G yielded a self-cleavage of 0.551. Variant C10U A23C has a self-cleavage of 0.637. C10U A23U showed a self-cleavage of 0.652. C10U U20C gave a self-cleavage of 0.722. With C10A G68U the self-cleavage was 0.201. For A11G A44U, the self-cleavage was 0.137. U9G C10G gave a self-cleavage of 0.375. For C10A A64C, the self-cleavage was 0.185. For A11G G40A, the self-cleavage was 0.291. Variant A11G G40C has a self-cleavage of 0.188. For A11C G34A, the self-cleavage was 1.01. A11C G34C gave a self-cleavage of 1.07. U9G C65A showed a self-cleavage of 0.609. Variant C10U C46A has a self-cleavage of 0.15. For C10U C46G, the self-cleavage was 0.0871. Work on C10U G15C yielded a self-cleavage of 0.825. Variant C10U G15U has a self-cleavage of 0.843. Variant C10U G15A has a self-cleavage of 0.722. U9G G56A gave a self-cleavage of 0.18. U9G G56C showed a self-cleavage of 0.0826. C10A U63G gave a self-cleavage of 0.152. With C10A U63C the self-cleavage was 0.207. U9G U33G gave a self-cleavage of 0.145. In the case of C10A G13A, the self-cleavage is reported as 0.501. In the case of C10A G13C, the self-cleavage is reported as 0.411. For C10G G32C, the self-cleavage was 0.207. Work on C10G G32A yielded a self-cleavage of 0.163. In the case of U9G G57U, the self-cleavage is reported as 0.379. With U9G G19U the self-cleavage was 0.546. Variant C10G G27U has a self-cleavage of 0.195. In the case of A11C A31C, the self-cleavage is reported as 0.116. In the case of C10G C48U, the self-cleavage is reported as 0.168. For C10U A45G, the self-cleavage was 0.0999. Work on C10U A45U yielded a self-cleavage of 0.111. C10U A45C showed a self-cleavage of 0.159. C10A A49U showed a self-cleavage of 0.172. With C10G C38A the self-cleavage was 0.168. For U9G A64U, the self-cleavage was 0.164. C10U U52A gave a self-cleavage of 0.761. With A11G C48U the self-cleavage was 0.144. U9G A31C showed a self-cleavage of 0.0438. Variant U9G A31G has a self-cleavage of 0.549. A11G A61G gave a self-cleavage of 0.166. For A11G A61U, the self-cleavage was 0.136. With U9G G21A the self-cleavage was 0.554. In the case of C10U C12G, the self-cleavage is reported as 0.612. Variant C10A G42C has a self-cleavage of 0.235. In the case of C10A G42U, the self-cleavage is reported as 0.268. C10G C16G gave a self-cleavage of 0.559. Variant U9G C66U has a self-cleavage of 0.429. With A11G G19U the self-cleavage was 0.979. Work on A11C G69C yielded a self-cleavage of 0.182. Variant U9G G32A has a self-cleavage of 0.128. Variant C10U G29A has a self-cleavage of 0.158. For C10G U20A, the self-cleavage was 0.484. With U9G A47U the self-cleavage was 0.0873. U9G A47C gave a self-cleavage of 0.406. In the case of C10A C18U, the self-cleavage is reported as 0.809. With C10A C18A the self-cleavage was 0.708. With C10A C18G the self-cleavage was 0.791. Work on A11G A22U yielded a self-cleavage of 1.01. A11G A22C gave a self-cleavage of 0.779. With A11G A22G the self-cleavage was 0.774. In the case of A11C G57A, the self-cleavage is reported as 0.116. Variant C10G A64U has a self-cleavage of 0.199. C10G A64G gave a self-cleavage of 0.397. Variant C10G G69C has a self-cleavage of 0.23. C10G U58G showed a self-cleavage of 0.441. Work on U9G U55G yielded a self-cleavage of 0.0748. For A11C G27C, the self-cleavage was 0.165. In the case of A11C G27A, the self-cleavage is reported as 0.403. U9G G34U gave a self-cleavage of 1.15. Variant C10U G51C has a self-cleavage of 0.783. A11G C12G gave a self-cleavage of 0.788. A11C A22U showed a self-cleavage of 0.554. A11G C37A gave a self-cleavage of 0.149. A11G C37G gave a self-cleavage of 0.34.
